Literature values in publication PMC12378658.

Assays:
TSLPR (Homo sapiens) = TSLPR (Homo sapiens) (UniProt Q9HC73)
[1] = target: TSLP:TSLPR complex (Homo sapiens) (UniProt Q969D9)

Sequence of UniProt Q9HC73 (Q9HC73 23-231): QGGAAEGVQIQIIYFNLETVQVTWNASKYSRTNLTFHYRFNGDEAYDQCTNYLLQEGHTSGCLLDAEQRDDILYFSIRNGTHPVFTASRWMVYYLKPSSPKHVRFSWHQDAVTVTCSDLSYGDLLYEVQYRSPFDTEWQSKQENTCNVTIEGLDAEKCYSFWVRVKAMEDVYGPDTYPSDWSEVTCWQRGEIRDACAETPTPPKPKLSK

| Kd (TSLPR (Homo sapiens)) [nM] | Kd [1] [nM] | Substance |
| --- | --- | --- |
| 32 | – | TSLP (from UniProt Q969D9) |
| – | 29 | IL-7Rα (from UniProt P16871) |
